Experimental data taken from patent US20240254203A1.

Molecular target: SARS COV-1 spike protein (SARS COV-1) (UniProt P59594)
Test: cell-based or functional assay

Chain of soluble 80R scFv (VH): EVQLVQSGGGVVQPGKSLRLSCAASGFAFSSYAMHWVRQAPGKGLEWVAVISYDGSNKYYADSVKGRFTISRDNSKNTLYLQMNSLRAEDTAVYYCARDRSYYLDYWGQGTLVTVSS
Chain of soluble 80R scFv (VL): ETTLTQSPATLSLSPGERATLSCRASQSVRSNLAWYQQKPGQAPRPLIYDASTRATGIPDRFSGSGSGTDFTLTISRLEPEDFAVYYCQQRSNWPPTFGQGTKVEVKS

## soluble 80R scFv
  IC50, neutralization of SARS COV-1 by the soluble scFv: 7.43 nM
